Experimental findings from the RNAGym collection of RNA variant scans (doi:10.7554/elife.80360) are described below.

To fix the notation:
B1: Hammerhead Ribozyme (parent)
chain: ACCGGAUGUGCUUUCCGGUCUGAUGAGUCCGUGAGGACGAAACAG

The variants in this data set derive from B1. Description: self-cleavage, relative activity (ratio to wild type); higher = more cleavage; co-transcriptional.
Take U14A A26U: the self-cleavage was 0.65.

Consider U14A A26C, for which the self-cleavage turned out to be 0.47. As for U14A A26G, the figure is 0.343.

As for U14C A23G, the self-cleavage is 0.268. The result for U14C A23U reads 0.341; that for U14C A23C, 0.373. Take U13G G45C: the self-cleavage was 0.596.

For U13G G45U, the self-cleavage was 0.702. As for U13G G45A, the figure is 0.719. Consider U14G C29U, for which the self-cleavage amounted to 0.625.

For the variant U14G C29G, the self-cleavage turned out to be 0.737. For the variant U14G C29A, the self-cleavage was determined as 0.677. As for U13G U24G, the self-cleavage is 0.654. The result for U13G U24C reads 0.83; that for U13G U24A, 1.36. The result for U14C C29A reads 0.461. The result for U14C C29G reads 0.497; that for U14C C29U, 0.709; that for U14C U24C, 0.889.

For U14C U24G, the self-cleavage turned out to be 0.816. The result for U14C U24A reads 0.726; that for U13G G27U, 0.375. As for U13G G27A, the figure is 0.66; as for U13G G27C, 0.546.

For the variant U14C G45C, the self-cleavage was 0.441.

Turning to U14C G45A, the self-cleavage came out at 0.472. The result for U14C G45U reads 0.485; that for U14G G36U, 0.565. As for U14G G36A, the figure is 0.729. U14G G36C: the self-cleavage amounted to 0.377. The result for U14C A26U reads 0.444.

Regarding U14C A26G, the self-cleavage was 0.359.

U14C A26C: the self-cleavage amounted to 0.371. The result for U14G U21A reads 0.741. As for U14G U21C, the figure is 0.812; as for U14G U21G, 0.572; as for U14A G31U, 1.31.

On to U14A G31A, for which the self-cleavage amounted to 0.81. The result for U14A G31C reads 1.01; that for U14A C43U, 0.41. The result for U14A C43G reads 0.334; that for U14A C43A, 0.333; that for U14C U21C, 0.504.

Regarding U14C U21G, the self-cleavage was 0.319. As for U14C U21A, the figure is 0.347; as for U14G G33A, 0.518; as for U14G G33C, 0.528.

As to U14G G33U, the self-cleavage was found to be 0.678. The result for U14G C43U reads 0.547. The result for U14G C43A reads 0.304; that for U14G C43G, 0.416. As to U14G U19C, the self-cleavage came to 0.715. As for U14G U19G, the figure is 0.422; as for U14G U19A, 0.383. The result for U14A C30U reads 0.96; that for U14A C30G, 0.624. As for U14A C30A, the figure is 0.838; as for U14A C38U, 0.926; as for U14A C38A, 0.54. Consider U14A C38G, for which the self-cleavage turned out to be 0.574. As for U14A G27C, the figure is 0.661; as for U14A G27U, 0.405.

In the case of U14A G27A, the self-cleavage is 0.771. As for U14G A26G, the self-cleavage is 0.223. For the variant U14G A26U, the self-cleavage was 0.569.

For the variant U14G A26C, the self-cleavage was found to be 0.764. As for U13G U28G, the figure is 0.973; as for U13G U28C, 1.01. As for U13G U28A, the figure is 0.673. For U14G G45C, the self-cleavage worked out at 0.879. Take U14G G45U: the self-cleavage turned out to be 0.776. The result for U14G G45A reads 0.708; that for U14C C30U, 0.613. The result for U14C C30A reads 0.7; that for U14C C30G, 0.65; that for U14A U28G, 0.555. The result for U14A U28A reads 0.656. For the variant U14A U28C, the self-cleavage is 0.923. As for U13G U32G, the figure is 0.74; as for U13G U32C, 0.986. As for U13G U32A, the figure is 1.01.

Turning to U14A G25U, the self-cleavage is 0.297. With U14A G25C, the self-cleavage is 0.288. The result for U14A G25A reads 0.28; that for U13G G18A, 0.642. As for U13G G18C, the figure is 0.696; as for U13G G18U, 0.701; as for U14G C15A, 0.659.

Regarding U14G C15U, the self-cleavage amounted to 0.581. As for U14G C15G, the figure is 0.771. As for U14G A23U, the figure is 0.256. The result for U14G A23C reads 0.36; that for U14G A23G, 0.248; that for U14C U28C, 0.706. Consider U14C U28G, for which the self-cleavage is 0.544. As for U14C U28A, the figure is 0.501; as for U14C C20G, 0.301; as for U14C C20U, 0.457. As for U14C C20A, the figure is 0.337; as for U14C G31A, 0.918; as for U14C G31C, 0.816. The result for U14C G31U reads 1.05; that for U14A U21C, 0.586. As for U14A U21G, the self-cleavage turned out to be 0.595.

As for U14A U21A, the self-cleavage came out at 0.542. As for U14A C29A, the figure is 0.608; as for U14A C29U, 0.557; as for U14A C29G, 0.562.

Take U14C U32A: the self-cleavage was 0.825. As for U14C U32G, the figure is 0.546. As for U14C U32C, the figure is 0.61; as for U14C G18U, 0.413; as for U14C G18A, 0.409. The result for U14C G18C reads 0.351; that for U14A G33U, 0.872; that for U14A G33A, 0.751. As for U14A G33C, the self-cleavage is 0.987. As for U14G G35C, the figure is 0.509. Regarding U14G G35U, the self-cleavage worked out at 0.611. As for U14G G35A, the self-cleavage was determined as 0.725. Take U14G C20G: the self-cleavage came out at 0.297. For the variant U14G C20A, the self-cleavage was found to be 0.481. The result for U14G C20U reads 0.393.

With U14C C16A, the self-cleavage amounted to 0.931. As for U14C C16U, the figure is 0.95; as for U14C C16G, 0.722; as for U14A G35C, 0.654. As for U14A G35A, the figure is 0.665; as for U14A G35U, 0.721; as for U14A U19A, 0.304.

U14A U19G: the self-cleavage worked out at 0.356. Turning to U14A U19C, the self-cleavage turned out to be 0.474. The result for U13G C43U reads 0.596; that for U14G G27U, 0.515. As for U14G G27C, the figure is 0.618. U14G G27A: the self-cleavage came out at 0.757. As for U14C G17C, the figure is 0.342; as for U14C G17A, 0.494. The result for U14C G17U reads 0.561.

Take U14C U19G: the self-cleavage was 0.334. As for U14C U19C, the figure is 0.398. As for U14C U19A, the figure is 0.362; as for U14A A37C, 0.815; as for U14A A37U, 0.618.

In the case of U14A A37G, the self-cleavage worked out at 0.811.

Take U13G U14A: the self-cleavage is 0.428.

Regarding U13G U14C, the self-cleavage was 0.598. As for U13G U14G, the figure is 0.796; as for U14G G22A, 0.314. The result for U14G G22U reads 0.394. As for U14G G22C, the figure is 0.301. Consider U14C A41C, for which the self-cleavage came to 0.301. As for U14C A41U, the figure is 0.296; as for U14C A41G, 0.312; as for U14G G18A, 0.54. For U14G G18U, the self-cleavage turned out to be 0.522. The result for U14G G18C reads 0.533; that for U14C G33A, 0.754; that for U14C G33C, 0.851. Turning to U14C G33U, the self-cleavage stood at 1.09. In the case of U14A G18C, the self-cleavage is 0.456. As for U14A G18A, the figure is 0.327; as for U14A G18U, 0.644. The result for U14G G17U reads 0.485; that for U14G G17C, 0.27; that for U14G G17A, 0.544. As for U13G U19A, the figure is 0.301.
